Reference: patent US20210002644, “ANTI-CHYMASE APTAMER AND USE FOR SAME” (RIBOMIC INC., published 2021)

Legend:
[1] = molecular target: T1, chymase (native, human skin mast cell) (Homo sapiens, UniProt P23946 P23946:22-247); assay: inhibition; angiotensin I substrate; settings: tags: Calbiochem Human Skin
T1 sequence: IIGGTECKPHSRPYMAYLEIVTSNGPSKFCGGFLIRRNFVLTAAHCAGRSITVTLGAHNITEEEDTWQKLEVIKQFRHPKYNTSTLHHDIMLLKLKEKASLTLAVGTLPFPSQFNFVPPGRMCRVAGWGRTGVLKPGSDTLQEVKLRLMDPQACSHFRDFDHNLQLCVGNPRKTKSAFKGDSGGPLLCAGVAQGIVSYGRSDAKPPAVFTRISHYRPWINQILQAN
Description: (§1) The total volume of solution for an enzyme reaction in the assay was set to 50 μL, and the reaction was performed in solution C buffer. At first, native (manufactured by Calbiochem) was diluted with solution C to give 5 μL thereof. Here, the native is chymase purified from human skin mast cell. The nucleic acid was serially diluted with solution C at a concentration of 0.0027-2 μM to give 25 μL thereof. The chymase solution (5 μL) and the nucleic acid solution (25 μL) were mixed, and the mixture was incubated at 37° C. for 5 min. On the other hand, […] angiotensin I (manufactured by PEPTIDE […], INC.) was prepared in solution C to give 20 μL thereof, which was incubated at 37° C. for 5 min. The angiotensin I solution was added to a mixture of chymase and nucleic acid to start an enzyme reaction. The final chymase concentration of the reaction solution was 0.5 nM, and the final substrate concentration was 50 μM. After reaction at 37° C. for 90 min, ice-cooled 30% trichloroacetic acid solution (25 μL) was added to quench the reaction. The whole mixture was centrifuged at 4° C., 14000 rpm for 10 min, and the supernatant (30 μL) was used for the next fluorescence induction reaction.
(§2) The above-mentioned supernatant (30 μL) was added to a 96 well plate (black, manufactured by Costar), a solution (15 μL) of 2% o-phthalaldehyde (manufactured by SIGMA) in methanol and 0.3M NaOH solution (170 μL) were added to each well, and the mixture was incubated at room temperature for 10 min. Then, 3M HCl solution (25 μL) was added to quench the reaction. The plate was set on a microplate reader SpectraMax190 (manufactured by Molecular device) and the fluorescence intensity was measured at an excitation wavelength of 355 nm and a fluorescence wavelength of 460 nm.
All nucleic acids of SEQ ID NO: 17(1)-17(25) were prepared by chemical synthesis. In the evaluation of SEQ ID NO: 17(1)-17(25), a method similar to the evaluation method of inhibitory activity against chymase shown in Example 1 by using angiotensin I as a substrate was used for measurement. In the Table, the IC₅₀ value is a mean of 2 or 3 measurements.

[2] = molecular target: T1, chymase (native, human skin mast cell); assay: inhibition; angiotensin I substrate; settings: tags: Calbiochem Human Skin; remark: listed apart in the source
Description: as §1, §2
All nucleic acids of SEQ ID NO: 33(1)-33(18) were prepared by chemical synthesis. The aptamers shown by these sequences were measured by a method similar to the inhibitory activity evaluation method for chymase inhibitory activity shown in Example 1 by using angiotensin I as a substrate. In the Table, the IC₅₀ value is a mean of 2 or 3 measurements.

B1: SEQ ID NO: 17(17) (mixed)
RNA: GAUGAUCGGACAUAACAUUGUUGGGGUGUCAA
modifications: idT-G(M)A(M)U(F)G(M)A(M)U(F)C(F)G(M)G(M)A(M)C(F)A(M)U(F)AAC(F)A(M)TTG(M)U(F)U(F)G(M)GG(M)G(M)TG(M)TCA(M)A(PHE)-idT (F=2'-F, M=2'-OMe, PHE=8-(propyl)phenyl-rA)
IC50 [1]: 0.19 nM

B2: SEQ ID NO: 17(18) (mixed)
RNA: B1 RNA
modifications: idT-G(M)A(M)U(F)G(M)A(M)U(F)C(F)G(M)G(M)A(M)C(F)A(M)U(F)sAAC(F)A(M)TTG(M)U(F)U(F)G(M)GG(M)G(M)TG(M)TCA(M)A(M)-idT (F=2'-F, M=2'-OMe, s=PS)
IC50 [1]: 0.15 nM

B3: SEQ ID NO: 17(19) (mixed)
RNA: B1 RNA
modifications: idT-G(M)A(M)U(F)G(M)A(M)U(F)C(F)G(M)G(M)A(M)C(F)A(M)U(F)AsAC(F)A(M)TTG(M)U(F)U(F)G(M)GG(M)G(M)TG(M)TCA(M)A(M)-idT (F=2'-F, M=2'-OMe, s=PS)
IC50 [1]: 0.19 nM

B4: SEQ ID NO: 17(20) (mixed)
RNA: B1 RNA
modifications: idT-G(M)A(M)U(F)G(M)A(M)U(F)C(F)G(M)G(M)A(M)C(F)A(M)U(F)AAsC(F)A(M)TTG(M)U(F)U(F)G(M)GG(M)G(M)TG(M)TCA(M)A(M)-idT (F=2'-F, M=2'-OMe, s=PS)
IC50 [1]: 0.18 nM

B5: SEQ ID NO: 17(21) (mixed)
RNA: B1 RNA
modifications: idT-G(M)A(M)U(F)G(M)A(M)U(F)C(F)G(M)G(M)A(M)C(F)A(M)U(F)AAC(F)A(M)TTG(M)U(F)U(F)G(M)GsG(M)G(M)TG(M)TCA(M)A(M)-idT (F=2'-F, M=2'-OMe, s=PS)
IC50 [1]: 0.19 nM

B6: SEQ ID NO: 17(23) (ssRNA)
RNA: B1 RNA
modifications: idT-G(M)A(PHE)U(F)G(M)A(M)U(F)C(F)G(M)G(M)A(M)C(F)A(M)U(F)AAC(F)AU(F)U(F)G(M)U(F)U(F)G(M)GG(M)G(M)U(F)G(M)U(F)C(F)A(M)A(M)-idT (F=2'-F, M=2'-OMe, PHE=8-(propyl)phenyl-rA)
IC50 [1]: 0.16 nM

B7: SEQ ID NO: 33(1) (mixed)
RNA: AUGAUCGGACAUAACUAAUUAGGGGUGUCAA
modifications: idT-A(M)U(M)G(M)A(M)U(F)C(F)G(M)G(M)A(M)C(M)A(M)U(M)AAC(M)U(F)AAU(F)U(M)AG(M)GG(M)G(M)TG(M)U(M)C(M)A(M)A(M)-idT (F=2'-F, M=2'-OMe)
IC50 [2]: 0.074 nM

B8: SEQ ID NO: 33(2) (mixed)
RNA: B7 RNA
modifications: idT-A(M)U(M)G(M)A(M)U(F)C(F)G(M)G(M)A(M)C(F)A(M)U(M)AAC(M)U(F)AAU(F)U(M)AG(M)GG(M)G(M)TG(M)TC(M)A(M)A(M)-idT (F=2'-F, M=2'-OMe)
IC50 [2]: 0.078 nM

B9: SEQ ID NO: 33(3) (mixed)
RNA: B7 RNA
modifications: idT-A(PHE)U(M)G(M)A(M)U(F)C(F)G(M)G(M)A(M)C(M)A(M)U(M)AAC(M)U(F)A(M)A(M)U(F)U(M)A(M)G(M)GG(M)G(M)TG(M)U(M)C(M)A(M)A(M)-idT (F=2'-F, M=2'-OMe, PHE=8-(propyl)phenyl-rA)
IC50 [2]: 0.071 nM

B10: SEQ ID NO: 33(4) (mixed)
RNA: B7 RNA
modifications: idT-A(PHE)U(M)G(M)A(M)U(F)C(F)G(M)G(M)A(M)C(F)A(M)U(M)AAC(M)U(F)A(M)A(M)U(F)U(M)A(M)G(M)GG(M)G(M)TG(M)TC(M)A(M)A(M)-idT (F=2'-F, M=2'-OMe, PHE=8-(propyl)phenyl-rA; printed 1J(F) read as U(F))
IC50 [2]: 0.072 nM

B11: SEQ ID NO: 33(5) (mixed)
RNA: B7 RNA
modifications: idT-A(PHE)U(M)G(M)A(M)U(F)C(F)G(M)G(M)A(M)C(F)A(M)U(M)AAC(M)U(F)A(M)A(M)U(F)U(M)A(M)G(M)GG(M)G(M)TG(M)U(M)C(M)A(M)A(M)-idT (F=2'-F, M=2'-OMe, PHE=8-(propyl)phenyl-rA)
IC50 [2]: 0.076 nM

B12: SEQ ID NO: 33(6) (mixed)
RNA: B7 RNA
modifications: idT-A(M)U(M)G(M)A(M)U(F)C(F)G(M)G(M)A(M)C(F)A(M)U(M)AAC(M)U(F)A(M)A(M)U(M)U(M)A(M)G(M)GG(M)G(M)TG(M)U(M)C(M)A(M)A(M)-idT (F=2'-F, M=2'-OMe)
IC50 [2]: 0.053 nM

B13: SEQ ID NO: 33(7) (mixed)
RNA: B7 RNA
modifications: idT-A(M)U(M)G(M)A(M)U(F)C(F)G(M)G(M)A(M)C(M)A(M)U(M)A(M)AC(M)U(F)A(M)A(M)U(M)U(M)A(M)G(M)GG(M)G(M)TG(M)U(M)C(M)A(M)A(M)-idT (F=2'-F, M=2'-OMe)
IC50 [2]: 0.071 nM

B14: SEQ ID NO: 33(8) (mixed)
RNA: B7 RNA
modifications: idT-A(M)U(M)G(M)A(M)U(F)C(F)G(M)G(M)A(M)C(M)A(M)U(M)AA(M)C(M)U(F)A(M)A(M)U(M)U(M)A(M)G(M)GG(M)G(M)TG(M)U(M)C(M)A(M)A(M)-idT (F=2'-F, M=2'-OMe)
IC50 [2]: 0.061 nM

B15: SEQ ID NO: 33(10) (mixed)
RNA: B7 RNA
modifications: idT-A(M)U(M)G(M)A(M)U(F)C(F)G(M)G(M)A(M)C(M)A(M)U(M)AAC(M)TA(M)A(M)U(M)U(M)A(M)G(M)GG(M)G(M)TG(M)U(M)C(M)A(M)A(M)-idT (F=2'-F, M=2'-OMe)
IC50 [2]: 0.071 nM

B16: SEQ ID NO: 33(11) (mixed)
RNA: B7 RNA
modifications: idT-A(M)U(M)G(M)A(M)U(F)C(F)G(M)G(M)A(M)C(M)A(M)U(M)AAC(M)U(F)A(M)A(M)TU(M)A(M)G(M)GG(M)G(M)TG(M)U(M)C(M)A(M)A(M)-idT (F=2'-F, M=2'-OMe)
IC50 [2]: 0.051 nM

B17: SEQ ID NO: 33(12) (mixed)
RNA: B7 RNA
modifications: idT-A(M)U(M)G(M)A(M)U(F)C(F)G(M)G(M)A(M)C(M)A(M)U(M)AAC(M)U(F)A(M)A(M)U(M)TA(M)G(M)GG(M)G(M)TG(M)U(M)C(M)A(M)A(M)-idT (F=2'-F, M=2'-OMe)
IC50 [2]: 0.048 nM

B18: SEQ ID NO: 33(13) (mixed)
RNA: B7 RNA
modifications: idT-A(M)U(M)G(M)A(M)U(F)C(F)G(M)G(M)A(M)C(M)A(M)U(M)AAC(M)T(M)A(M)A(M)U(M)U(M)A(M)G(M)GG(M)G(M)TG(M)U(M)C(M)A(M)A(M)-idT (F=2'-F, M=2'-OMe)
IC50 [2]: 0.069 nM

B19: SEQ ID NO: 33(14) (mixed)
RNA: B7 RNA
modifications: idT-A(M)U(M)G(M)A(M)U(F)C(F)G(M)G(M)A(M)C(M)A(M)U(M)AAC(M)U(F)A(M)A(M)T(M)U(M)A(M)G(M)GG(M)G(M)TG(M)U(M)C(M)A(M)A(M)-idT (F=2'-F, M=2'-OMe)
IC50 [2]: 0.075 nM

B20: SEQ ID NO: 33(15) (mixed)
RNA: B7 RNA
modifications: idT-A(M)U(M)G(M)A(M)U(F)C(F)G(M)G(M)A(M)C(M)A(M)U(M)AAC(M)U(F)A(M)A(M)U(M)T(M)A(M)G(M)GG(M)G(M)TG(M)U(M)C(M)A(M)A(M)-idT (F=2'-F, M=2'-OMe)
IC50 [2]: 0.072 nM

B21: SEQ ID NO: 33(16) (mixed)
RNA: B7 RNA
modifications: idT-A(M)U(M)G(M)A(M)U(F)C(F)G(M)G(M)A(M)C(M)A(M)U(M)AAC(M)U(F)A(M)A(M)U(M)U(M)A(M)G(M)GG(M)G(M)T(M)G(M)U(M)C(M)A(M)A(M)-idT (F=2'-F, M=2'-OMe)
IC50 [2]: 0.063 nM

B22: SEQ ID NO: 33(17) (mixed)
RNA: B7 RNA
modifications: idT-A(PHE)U(M)G(M)A(M)U(F)C(F)G(M)G(M)A(M)C(M)A(M)U(M)AAC(M)U(F)A(M)A(M)U(M)U(M)A(M)G(M)GG(M)G(M)TG(M)U(M)C(M)A(M)A(M)-idT (F=2'-F, M=2'-OMe, PHE=8-(propyl)phenyl-rA)
IC50 [2]: 0.038 nM
